B1: Motif Ia rank 3 hairpin (structured_DNA)
DNA: ACACGCGCATGCGGTTGGTGTGGTTTGGCATGCGCCACA
modifications: 3'-thiol for SPR
B2: Motif Ia rank 25 hairpin (structured_DNA)
DNA: B1 DNA with T21C, T26G
modifications: 3'-thiol for SPR
B3: Motif Ia rank 9 hairpin (structured_DNA)
DNA: B1 DNA with G20T, T26G
modifications: 3'-thiol for SPR

Our source for the Kd values is PMC3098231.

Usually Kd stands for the equilibrium constant for the complex coming apart. A high value points to lower affinity.

Changes are numbered by the printed parent chain.

For this data set, the target named is human alpha-thrombin (Homo sapiens, UniProt P00734;P00734 328-363;364-622). As to the kind of experiment: SPR imaging (k-1/k1); 50 nM thrombin; 20 mM Tris-HCl pH 7.4, 140 mM NaCl, 5 mM KCl, 1 mM CaCl2, 1 mM MgCl2; SPR at 25 C; EMSA in the same selection buffer, 14% native PAGE in 1X Tris-glycine at 4 C. On the technique in general: In EMSA bound probe runs differently from free probe, usually more slowly.
On to B1, for which the Kd amounted to 170 nM. B2 came in with a Kd of 2200 nM. B3 gave a Kd of 650 nM.
